# Data published in publication PMC4359589.
# Molecular target: VipB (Vibrio cholerae)
# Test: cryo-EM structure
substance,measurement,value
VipA (natural protein),stoichiometry N,1
